Laboratory results published in US20060031961A1, “Aldehyde reductase” (priority 2004, published 2006).
Several values for one entry are separate records, joined by “and”; a condition that tells them apart may be missing. Identical values can stand only once.

B1: sr1.pk0003.c5: soybean aldehyde reductase encoded by clone sr1.pk0003.c5:fis, expressed in E. coli and purified (protein)
chain: MAKLIKFFELNTGAKIPSVGLGTWQAEPGVVAKAVTTAILVGYRHIDCAQAYNNQAEIGSALKKLFDDGVVKREDLWITSKLWCSDHASEDVPKALDKTLQDLQLDYLDLYLIHWPVRMKSGSVGFKKEYLDQPDIPSTWKAMEALYDSGKARAIGVSNFSSKKLQDLMNIARVPPAVNQVELHPGWQQPKLHAFCESKGVHLSGYSPLGSPGVLKSDILKNPVVIEIAEKLGKTPAQVALRWGLQTGHSVLPKSTNESRIKGNFDVFDWSIPEEVMDKFSEIKQDRLIKGTFFVDETYGAFKTVEELWDGEL
modifications: Glycine max
notes: soybean aldehyde reductase encoded by clone sr1.pk0003.c5:fis, expressed in E. coli and purified
B2: sls2c.pk027.a23:fis: soybean aldehyde reductase encoded by clone sls2c.pk027.a23:fis, expressed in E. coli and purified (protein)
chain: MAKSIKFFELNTGAKIPSLGLGTWQAEPGVVAEALTTAIQVGYRHIDCASAYKNQAEIGSALKKLFDDGVVKREDLWITSKLWCSDHAPEDVPKALDKTLQELQLDYLDLYLIHWPVRMKSGTFGLNKEYLEQPDIPNTWRAMEALYDSDKARAIGVSNFSSKKLQDLLDIARVVPAVNQVELHPGWQQPKLRAFCESKEIHLSGYSPLGSPAALKSDILKNPVVTEIAERLGKTPAQVALRWGLQAGHSVLPKSTNESRIKGNFDIFDWSIPQDLMTKISEIKQERLVKASFFVHETYGAYRSIEDFWDGEL
modifications: Glycine max
notes: soybean aldehyde reductase encoded by clone sls2c.pk027.a23:fis, expressed in E. coli and purified

System: aldehyde reductase
Assay: Aldehyde reductase activity assay of expressed, purified proteins (oxidation of NADPH, change in A340)
Assay type: biochemical, Soybean (Glycine max L.)
Description: The activity assay measured oxidation of NADPH on a UV500 UV-Visible double-beam Spectrometer (Unicam) by monitoring the change in A340. The assay was performed at room temperature (approximately 23° C.) by adding all of the following reagents into a 1-mL 1-cm quartz cuvette: 500 μL of 200 mM HEPES-KOH pH 7.0, 200 μL of ddH2O, 100 μL of 1 mM NADPH, 25-50 μL aldehyde reductase extract in a 100 μL total volume of 100 mM HEPES-KOH pH 7.0, 10% glycerol buffer. After these samples were mixed and blanked and were incubated for three minutes and a pre-substrate rate was calculated, the assay was started by addition of the substrate to the sample cuvette (solvent was added to the reference cuvette). Several different substrates were tested with each enzyme preparation. These substrates included the following: 100 μL of 100 mM glyceraldehyde, 10 μL of 100 mM glyceraldehyde, or 100 μL of 0.5% […] hexanal in v/v ethanol, or 100 μL of a carbonyl compounds mixture (ULTRA Scientific, North Kingston, R.I.; formaldehyde, acetaldehyde, propanal, butantal, pentanal, hexanal, heptanal, octanal, nonanal, decanal, cyclohexanone, and crotonaldehdye (in methanol)). The carbonyl compounds mixture contains approximately 16 μmole total aldehyde per assay. Except for the inactivity seen in one aldehyde reductase extract with hexanal as the substrate, both of the aldehyde reductase enzymes were active with each of the different substrates tested (see Table 6). As a control, an extract of E. coli proteins without the expressed aldehyde reductase enzymes was prepared and assayed the same way. […] A Bradford assay was performed to determine protein concentrations in the extracts, and the enzymatic rates were calculated. Table 6 presents the activity (in μmol of NADPH oxidized and were NADPH specific (i.e., no activity was observed when NADH was used as the reductant)/min^−1/mg protein^−1) obtained for the purified protein extracts from the plasmids and the source of the DNA. Enzyme activity was calculated as follows: (ΔA340/min; after correction for pre-substrate addition rates)/(6.2×mg enzyme/mL reaction mixture).

[1] = substrate 1 mM glyceraldehyde, NADPH
[2] = substrate 10 mM glyceraldehyde, 100 μL of 1 mM NADH substituted for NADPH
[3] = substrate 10 mM glyceraldehyde, 100 μL of 10 mM ZnCl2 substituted for 100 μL ddH2O
[4] = substrate 10 mM glyceraldehyde, NADPH, room temperature, pH 7.0
[5] = substrate 100 μL 0.5% hexanal, NADPH
[6] = substrate 100 μL aldehyde mixture (carbonyl compounds mixture), NADPH

Molecule	Activity [1]	Activity [2]	Activity [3]	Activity [4]	Activity [5]	Activity [6]
B1	0.58 μmol · min^−1 · mg protein^−1	0.00 μmol · min^−1 · mg protein^−1	0.45 μmol · min^−1 · mg protein^−1	1.65 μmol · min^−1 · mg protein^−1 and 1.90 μmol · min^−1 · mg protein^−1 and 2.24 μmol · min^−1 · mg protein^−1	0.26 μmol · min^−1 · mg protein^−1	0.55 μmol · min^−1 · mg protein^−1
B2	0.14 μmol · min^−1 · mg protein^−1	0.00 μmol · min^−1 · mg protein^−1	0.28 μmol · min^−1 · mg protein^−1	0.70 μmol · min^−1 · mg protein^−1 and 0.60 μmol · min^−1 · mg protein^−1 and 0.74 μmol · min^−1 · mg protein^−1	0.00 μmol · min^−1 · mg protein^−1	0.58 μmol · min^−1 · mg protein^−1
